The values that follow come from patent US20150147342A1 (published 2015).

Assay [1] addresses T1, Dimeric fibrinogen-like domain of mouse (Mus musculus) Ang-2 conjugated to human IgG1 (mouse (Mus musculus)).
T1 construct: also called Dimeric Mouse Ang-2FD; Mouse Ang-2FD-hFc
The experiment in a line: SPR, antibody captured on anti-human kappa, 25 C. On the procedure:
(§1) Additional binding experiments were conducted using selected anti-Ang-2 antibodies at two different temperatures to further assess cross-species affinity. Each selected antibody or control construct was captured at a flow rate of 40 μL/min for 1 minute on a goat anti-human kappa polyclonal antibody surface created through direct chemical coupling to a BIACORE™ chip to form a captured antibody surface.

Assay [2] has as its target T1, Dimeric fibrinogen-like domain of mouse …. The experiment in a line: SPR, antibody captured on anti-human kappa, 37 C. The procedure: as §1
For assay [3] the target is unchanged. The experiment in a line: SPR, hIgG1 antibody captured, room temp. On the procedure:
(§2) Antibody was captured on a goat anti-mouse IgG polyclonal antibody surface, a goat anti-human κ polyclonal antibody (Southern Biotech, Birmingham, Ala.) surface or a goat anti-human IgG polyclonal antibody (Jackson Immuno Research Lab, West Grove, Pa.) surface created through direct amine coupling to a BIACORE™ CM5 sensor chip to form a captured antibody surface. […] Antigen-antibody binding and dissociation were monitored in real time at room temperature. Kinetic analysis was performed to calculate KD and half-life of antigen/antibody complex dissociation.
(§3) The above experiment was repeated using selected purified anti-Ang-2 antibodies cloned onto human IgG1.
A general note: Surface plasmon resonance follows binding to a sensor surface in real time, without labels.

Assay [4] concerns the target T2, Monkey Ang-2FD-hFc (monkey (Macca fascicularis)).
T2 construct: Order of the pieces follows the name; also called Dimeric Monkey Ang-2FD
The experiment in a line: ELISA, 16.67 nM antibody + 2 nM monkey Ang-2FD-hFc, on coated hTie-2-mFc (competitor). On the procedure:
(§4) Tie-2 is a natural receptor for Ang-2. Anti-Ang-2 antibodies were tested for their ability to block Ang-2 binding to human Tie-2 (hTie-2). hTie-2-mFc (a chimeric construct consisting of human Tie-2 conjugated to mouse IgG; SEQ ID NO:525) was coated onto 96-well plates at a concentration of 2 μg/ml and incubated overnight followed by washing four times in wash buffer (PBS with 0.05% Tween-20). The plate was then blocked with PBS (Irvine Scientific, Santa Ana, Calif.) containing 0.5% BSA (Sigma-Aldrich Corp., St. Louis, Mo.) for one hour at room temperature. In a separate plate, purified anti-Ang-2 antibodies, at a starting concentration of 50 nM, were serially diluted by a factor of three across the plate. […] The antibody/Ang-2FD-Fc mixture was then added to the plate containing hTie-2-mFc and incubated for one hour at room temperature.
(In general: ELISA stands for enzyme-linked immunosorbent assay.)

Assay [5] has as its target T3, Mouse Ang-2FD-hFc (mouse (Mus musculus)).
T3 construct: Order of the pieces follows the name; also called Dimeric Mouse Ang-2FD
The experiment in a line: ELISA, 16.67 nM antibody + 8 nM mouse Ang-2FD-hFc, on coated hTie-2-mFc (competitor). The procedure:
as §4

The target of assay [6] is T4, Human Ang-2FD-hFc (human).
T4 construct: Order of the pieces follows the name (Ang-2FD, then hFc); also called Dimeric Human Ang-2FD; human Ang-2FD protein conjugated to human IgG
The experiment in a line: ELISA, 16.67 nM antibody + 2 nM human Ang-2FD-hFc, on coated hTie-2-mFc (competitor). The procedure: as §4

The target of assay [7] is T5, Dimeric fibrinogen-like domain of monkey (Macca fascicularis) Ang-2 conjugated to human IgG1 (monkey (Macca fascicularis)).
T5 construct: also called Dimeric Monkey Ang-2FD; Monkey Ang-2FD-hFc
The experiment in a line: SPR, antibody captured on anti-human kappa, 25 C. On the procedure: as §1

For assay [8], the target named is T5, Dimeric fibrinogen-like domain of …. The experiment in a line: SPR, antibody captured on anti-human kappa, 37 C. On the procedure: as §1
Assay [9] has the same target. The experiment in a line: SPR, hIgG1 antibody captured, room temp. The procedure: as §2, §3
The target in assay [10] is T6, Dimeric fibrinogen-like domain of human Ang-2 conjugated to human IgG1 (human).
T6 construct: also called Dimeric Human Ang-2FD; Human Ang-2FD-hFc
The experiment in a line: SPR, hIgG1 antibody captured, room temp. The procedure:
as §2, §3

Changes are numbered by the printed parent chain.

B1: H1H685P (antibody, V domains shown)
VH: EVQLVESGGGLVQPGGSLRLSCAASGFTFSSYDIHWVRQATGKGLEWVSAIGPAGDTYYPGSVKGRFTISRENAKNSLYLQMNSLRAGDTAVYYCARGLITFGGLIAPFDYWGQGTLVTVSS
VL: EIVLTQSPGTLSLSPGERATLSCRASQSVSSTYLAWYQQKPGQAPRLLIYGASSRATGIPDRFSGSGSGTDFTLTISRLEPEDFAVYYCQHYDNSQTFGQGTKVEIK
notes: also called mAb1
In the case of B1, the Kd in assay [1] stood at 0.0651 nM; in assay [2], 0.0939 nM; in assay [3], 0.148 nM. In addition, the “T1/2” value in assay [1] was 208 min; in assay [2], 64 min; in assay [3] it was 129 min.

B2: H1H691P (antibody, V domains shown)
VH: EVQLVESGGGLVQPGRSLRLSCAASGFTFDDYAMHWVRQAPGKGLEWVSGISWNSGDIGYADSVKGRFTISRDNAKNSLYLQMNSLRAQDTALYYCAKAYGDYYYFYGMDVWGQGTTVTVS
VL: B1 VL with T32S, Y50F, G51S, H91Q, Q96L, Q100G
notes: Fully human antibody, human IgG1
Turning to B2, the “Percent Blocking of Ang-2FD Binding to Tie-2” value (“Percent Blocking” below) in assay [4] was 99.8%; in assay [5] it was 96.7%; in assay [6], 97.4%.

B3: H1H706P (antibody, V domains shown)
VH: QVQLVESGGGVVQPGRSLRLSCAASGFTFSSYGMHWVRQAPDKGLEWVAVKWDDGSNKYYADSVKGRFTISRDNSKNTLYLQMNSLRAEDTAVYYCAREGPYDFYSGYGAFDIWGQGTMVTVSS
VL: DIQMTQSPSSLSASVGDRVTITCRASQGISNYLAWFQQKPGKAPKSLIYAASSLQSGVPSKFSGSGSGTDFTLTISSLQPEDFATYYCQQYNSYPRTFGQGTKVEIK
notes: as for B2
For the molecule B3, the “Percent Blocking” value is 99.8% in assay [4], 95.9% in assay [5] and 97.1% in assay [6].

B4: H1H724N (antibody, V domains shown)
VH: QVQLVESGGGVVQPGRSLRLSCAASGFTLSNYGMHWVRQAPGKGLEWVAVIWHDGSNTYYADSVKGRFTISRDNSKNTLYLQMNSLRAEDTAVYYCTREGLDFWSGYYPNWFDPWGQGTLVTVSS
VL: DIQMTQSPSSLSASVGDRVTITCRASQGIRNDLGWYQQKPGKAPKRLIYAASNLQGGVPSRFSGSGSGTEFTLTISSLQPEDFAAYYCLQHNIYPLTFGGGTKVEIK
As to B4, the figures for the “Percent Blocking” value in [4], in [5] and in assay [6] were 96.6%, 97.1% and 96.6%, respectively.

B5: H1H690P (antibody, V domains shown)
VH: EVQLVESGGGLVQPGESLRLSCAASGFTFSSYAMSWVRQGPGKGLEWVSSITGSGDTTYYADSVKGRFTISRDNSKNTLYLHMNSLRAEDTAVYYCAKDFLDYSTYLAFDLWGQGTMVTVSS
VL: EIVLTQSPATLSLSPGERATLSCRASQSVSSYLTWYQQKPGQAPRLLSYDASNRATGIPARFSGSGSGTDFTLTISSLEPEDFAVYYCQQRSNWPLTFGGGTKVEIK
notes: as for B2
On to B5, for which the “Percent Blocking” value in assay [4] is 99.6%; in assay [5] it was 98%; in assay [6], 97.2%.

B6: H1H744N (antibody, V domains shown)
VH: QVQLVQSGVEVKKPGASVKVSCKTSGYTFSNNGFSWVRQAPGQGLEWLGWISGYNGNTNYAQKFQGRVTMTTDTSTSTAYMELRTLRSDDTAVYYCARDQDYSNFHWLDPWGQGTLVTVAS
VL: DIQMTQSPSSVSASVGDRVIITCRASQGLSSWLAWYQQKPGTAPKLLIHSASSLQTGVPSRFSGSGSGTEFALTINSLQPEDFGTYYCQQANSFPLTFGGGTRVEIK
As for B6, the Kd in assay [7] turned out to be 0.244 nM; in assay [1], 0.385 nM; in [8], 0.32 nM; in [2] it was 0.215 nM; in [9] it was 0.346 nM; in assay [10], 0.114 nM. Further, the “T1/2” value in [7] came to 24 min; in assay [1] it was 33 min; in assay [8] it was 11 min; in assay [2], 26 min; in assay [9], 164 min; in assay [10] it was 127 min. In assay [3], the “T1/2” value turned out to be 115 min.

B7: H1H744N (antibody, V domains shown)
VH: B6 VH
VL: B6 VL
In the case of B7, the “Percent Blocking” value in assay [4] amounted to 96.2%; in [5] it was 97.6%; in assay [6] it was 97.9%.

Usually Kd stands for the free concentration of one partner at which half of the binding sites on the other are occupied at equilibrium, for simple one-to-one binding.
